From patent US20100215655A1 (CHENGDU KANGHONG BIOTECHNOLOGIES, published 2010)

Legend:
[1] = molecular target: T1, recombinant VEGF (vascular endothelial cell growth factor) (UniProt P15692-4 27-191, limits assumed); test: ELISA, VEGF coated on plate, anti-human Ig-HRP detection
T1 construct: also called recombinant VEGF proteins (Chemicom)
Method: Affinities of the chimeric proteins to VEGF were determined by the VEGF binding assay in the present invention. Firstly, recombinant VEGF proteins (Chemicom) were coated in a 96-well ELISA plate, and non-specific protein binding sites of the plate were then blocked using 5% milk solution. Secondly, different concentrations of various chimeric proteins were added into each well, and incubated for 2 hours at 37° C. After washing, rabbit anti-human Ig-HRP (Sigma) was added into each well, and finally colorimetric enzyme substrates were added to the plate. The absorption OD readings were recorded with the use of an ELISA plate reader. A higher OD value indicated a stronger binding affinity of the chimeric proteins to VEGF.

[2] = molecular target: T1, recombinant VEGF (vascular endothelial …); test: cell-based or functional assay

T1 sequence (P15692 other isoform, or with tags, fused parts or gaps limits assumed): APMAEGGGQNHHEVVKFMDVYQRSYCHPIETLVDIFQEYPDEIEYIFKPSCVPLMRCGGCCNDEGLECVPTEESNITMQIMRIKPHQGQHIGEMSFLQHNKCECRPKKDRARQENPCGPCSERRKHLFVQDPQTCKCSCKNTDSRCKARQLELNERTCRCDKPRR

| Binder | concentration at which binding was detectable [1] [µg/mL] | IC50 of inhibition of VEGF-induced HUVEC cell growth [2] [ng/mL] |
| --- | --- | --- |
| FP5′ (FLTd2-KDRd3,4,5-Fc) (Fc fusion, human, not shown: a dimerising Fc or GST, domain: 5th Ig-like domain of KDR; Expressed in 293 cells) PFVEMYSEIPEIIHMTEGRELVIPCRVTSPNITVTLKKFPLDTLIPDGKRIIWDSRKGFIISNATYKEIGLLTCEATVNGHLYKTNYLTHRQTVVLSPSHGIELSVGEKLVLNCTARTELNVGIDFNWEYPSSKHQHKKLVNRDLKTQSGSEMKKFLSTLTIDGVTRSDQGLYTCAASSGLMTKKNSTFVRVHEKFVAFGSGMESLVEATVGERVRIPAKYLGYPPPEIKWYKNGIPLESNHTIKAGHVLTIMEVSERDTGNYTVILTNPIKSEKQSHVVSLVVYVPPQIGEKSLISPVDSYQYGTTQTLTCTVYAIPPPHHIHWYWQLEEECANEPSQAVSVTNPYPCEEWRSVEDFQGGNKIEVNKNQFALIEGKNKTVSTLVIQAANVSALYKCEAVNKVGRGERVISFHVT | 1 | 5 to 8 |
| FP4′ (FLTd2-KDRd3-FLTd4-Fc) (Fc fusion, not shown: a dimerising Fc or GST, Expressed in 293 cells) PFVEMYSEIPEIIHMTEGRELVIPCRVTSPNITVTLKKFPLDTLIPDGKRIIWDSRKGFIISNATYKEIGLLTCEATVNGHLYKTNYLTHRQTVVLSPSHGIELSVGEKLVLNCTARTELNVGIDFNWEYPSSKHQHKKLVNRDLKTQSGSEMKKFLSTLTIDGVTRSDQGLYTCAASSGLMTKKNSTFVRVHEKFITVKHRKQQVLETVAGKRSYRLSMKVKAFPSPEVVWLKDGLPATEKSARYLTRGYSLIIKDVTEEDAGNYTILLSIKQSNVFKNLTATLIVNVKP | 1 | 5 to 8 |
| FP6′ (FLTd2-KDRd3-FLTd4,5-Fc) (Fc fusion, human, not shown: a dimerising Fc or GST, domain: 5th Ig-like domain of FLT-1; Expressed in 293 cells; also called PF6′) PFVEMYSEIPEIIHMTEGRELVIPCRVTSPNITVTLKKFPLDTLIPDGKRIIWDSRKGFIISNATYKEIGLLTCEATVNGHLYKTNYLTHRQTVVLSPSHGIELSVGEKLVLNCTARTELNVGIDFNWEYPSSKHQHKKLVNRDLKTQSGSEMKKFLSTLTIDGVTRSDQGLYTCAASSGLMTKKNSTFVRVHEKFITVKHRKQQVLETVAGKRSYRLSMKVKAFPSPEVVWLKDGLPATEKSARYLTRGYSLIIKDVTEEDAGNYTILLSIKQSNVFKNLTATLIVNVKPQIYEKAVSSFPDPALYPLGSRQILTCTAYGIPQPTIKWFWHPCNHNHSEARCDFCSNNEESFILDADSNMGNRIESITQRMAIIEGKNKMASTLVVADSRISGIYICIASNKVGTVGRNISFYIT | 1 | 5 to 8 |
| FP2′ (KDRd1-FLTd2-KDRd3-Fc) (Fc fusion, not shown: a dimerising Fc or GST, Expressed in 293 cells) PRLSIQKDILTIKANTTLQITCRGQRDLDWLWPNNQSGSEQRVEVTECSDGLFCKTLTIPKVIGNDTGAYKCFYRETDLASVIYVYPFVEMYSEIPEIIHMTEGRELVIPCRVTSPNITVTLKKFPLDTLIPDGKRIIWDSRKGFIISNATYKEIGLLTCEATVNGHLYKTNYLTHRQTVVLSPSHGIELSVGEKLVLNCTARTELNVGIDFNWEYPSSKHQHKKLVNRDLKTQSGSEMKKFLSTLTIDGVTRSDQGLYTCAASSGLMTKKNSTFVRVHEK | 1 | 5 to 8 |
| FP1′ (FLTd2-KDRd3-Fc), chimeric protein of the prior art (Fc fusion, not shown: a dimerising Fc or GST) PFVEMYSEIPEIIHMTEGRELVIPCRVTSPNITVTLKKFPLDTLIPDGKRIIWDSRKGFIISNATYKEIGLLTCEATVNGHLYKTNYLTHRQTVVLSPSHGIELSVGEKLVLNCTARTELNVGIDFNWEYPSSKHQHKKLVNRDLKTQSGSEMKKFLSTLTIDGVTRSDQGLYTCAASSGLMTKKNSTFVRVHEK | – | ~12 |
